Data from publication PMC11748629, “Unidirectional MCM translocation away from ORC drives origin licensing” (Nature Communications, 2025).

T1: Mcm2 (Saccharomyces cerevisiae, UniProt P29469 1-868)
T1 construct: Mcm2, S. cerevisiae; Subunit of m7, written alone for the contacts seen in OC1M^Mcm5RA; also called Mcm2 subunit of MCM; source: S. cerevisiae strain yGC226, purified as a subunit of MCM-Cdt1
T1 sequence: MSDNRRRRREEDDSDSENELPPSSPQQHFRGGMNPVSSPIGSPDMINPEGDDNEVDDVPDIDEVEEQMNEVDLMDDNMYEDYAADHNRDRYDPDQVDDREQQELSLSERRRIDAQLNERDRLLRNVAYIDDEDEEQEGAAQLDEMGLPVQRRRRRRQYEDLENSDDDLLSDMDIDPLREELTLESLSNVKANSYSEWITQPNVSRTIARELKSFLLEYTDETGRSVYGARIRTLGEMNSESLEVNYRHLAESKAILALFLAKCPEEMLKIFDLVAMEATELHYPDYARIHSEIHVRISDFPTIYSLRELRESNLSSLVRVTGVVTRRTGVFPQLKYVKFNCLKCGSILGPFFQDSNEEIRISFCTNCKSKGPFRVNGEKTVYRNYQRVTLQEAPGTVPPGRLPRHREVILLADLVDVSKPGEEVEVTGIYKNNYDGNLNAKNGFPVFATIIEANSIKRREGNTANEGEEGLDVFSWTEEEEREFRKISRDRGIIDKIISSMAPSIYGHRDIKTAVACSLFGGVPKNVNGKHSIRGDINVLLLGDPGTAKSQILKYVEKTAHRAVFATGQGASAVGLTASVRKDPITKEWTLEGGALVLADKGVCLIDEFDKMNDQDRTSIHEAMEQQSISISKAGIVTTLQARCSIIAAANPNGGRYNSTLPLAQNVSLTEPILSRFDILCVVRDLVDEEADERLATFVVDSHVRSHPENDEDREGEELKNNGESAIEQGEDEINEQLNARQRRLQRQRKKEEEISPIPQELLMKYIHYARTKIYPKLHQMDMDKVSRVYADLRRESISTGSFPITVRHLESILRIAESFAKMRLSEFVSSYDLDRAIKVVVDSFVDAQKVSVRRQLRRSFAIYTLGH

B1: Mcm5 R549A (natural protein, Saccharomyces cerevisiae)
chain: MSFDRPEIYSAPVLQGESPNDDDNTEIIKSFKNFILEFRLDSQFIYRDQLRNNILVKNYSLTVNMEHLIGYNEDIYKKLSDEPSDIIPLFETAITQVAKRISILSRAQSANNNDKDPENTSMDTDSLLLNSLPTFQLILNSNANQIPLRDLDSEHVSKIVRLSGIIISTSVLSSRATYLSIMCRNCRHTTSITINNFNSITGNTVSLPRSCLSTIESESSMANESNIGDESTKKNCGPDPYIIIHESSKFIDQQFLKLQEIPELVPVGEMPRNLTMTCDRYLTNKVIPGTRVTIVGIYSIYNSKNGAGSGRSGGGNGGSGVAIRTPYIKILGIQSDVETSSIWNSVTMFTEEEEEEFLQLSRNPKLYEILTNSIAPSIFGNEDIKKAIVCLLMGGSKKILPDGMRLRGDINVLLLGDPGTAKSQLLKFVEKVSPIAVYTSGKGSSAAGLTASVQRDPMTREFYLEGGAMVLADGGVVCIDEFDKMRDEDRVAIHEAMEQQTISIAKAGITTVLNSRTSVLAAANPIYGRYDDLKSPGDNIDFQTTILSAFDMIFIVKDDHNEERDISIANHVINIHTGNANAMQNQQEENGSEISIEKMKRYITYCRLKCAPRLSPQAAEKLSSNFVTIRKQLLINELESTERSSIPITIRQLEAIIRITESLAKLELSPIAQERHVDEAIRLFQASTMDAASQDPIGGLNQASGTSLSEIRRFEQELKRRLPIGWSTSYQTLRREFVDTHRFSQLALDKALYALEKHETIQLRHQGQNIYRSGV
notes: Mcm5, S. cerevisiae; Subunit of m7, written alone for the contacts seen in OC1M^Mcm5RA; also called Mcm5RA; source: S. cerevisiae strain yGC226, purified as a subunit of MCM-Cdt1

Key:
Mcm2 = molecular target: T1, Mcm2; experiment: cryo-EM structure; OC1M^Mcm5RA: 30 nM MH-ARS1-MH DNA, 60 nM ORC, 90 nM Cdc6, 60 nM MCM-Cdt1 (Mcm5 R549A), 2 mM ATP; same buffer; 30 °C, 30 min; conformer 1 at 3.7 Å, conformer 2 at 3.4 Å (Orc1 ATPase domain seen only in conformer 1); settings: both partners purified
Mcm5 R549A = molecular target: B1; experiment: as above; settings: both partners purified

binding result (Mcm2)	binding result (Mcm5 R549A)	Binder
binds		B1
	binds	Orc3 (natural protein, Saccharomyces cerevisiae, Orc3, S. cerevisiae; Subunit of m1, written alone for the contacts seen in the structures; also called Orc3 subunit of ORC; source: S. cerevisiae strain ySD-ORC, purified as a subunit of ORC) MSDLNQSKKMNVSEFADAQRSHYTVYPSLPQSNKNDKHIPFVKLLSGKESEVNVEKRWELYHQLHSHFHDQVDHIIDNIEADLKAEISDLLYSETTQKRRCFNTIFLLGSDSTTKIELKDESSRYNVLIELTPKESPNVRMMLRRSMYKLYSAADAEEHPTIKYEDINDEDGDFTEQNNDVSYDLSLVENFKRLFGKDLAMVFNFKDVDSINFNTLDNFIILLKSAFKYDHVKISLIFNINTNLSNIEKNLRQSTIRLLKRNYHKLDVSSNKGFKYGNQIFQSFLDTVDGKLNLSDRFVEFILSKMANNTNHNLQLLTKMLDYSLMSYFFQNAFSVFIDPVNVDFLNDDYLKILSRCPTFMFFVEGLIKQHAPADEILSLLTNKNRGLEEFFVEFLVRENPINGHAKFVARFLEEELNITNFNLIELYHNLLIGKLDSYLDRWSACKEYKDRLHFEPIDTIFQELFTLDNRSGLLTQSIFPSYKSNIEDNLLSWEQVLPSLDKENYDTLSGDLDKIMAPVLGQLFKLYREANMTINIYDFYIAFRETLPKEEILNFIRKDPSNTKLLELAETPDAFDKVALILFMQAIFAFENMGLIKFQSTKSYDLVEKCVWRGI
